Results from patent US20220143136A1, “USE OF ANNEXINS IN PREVENTING AND TREATING MUSCLE MEMBRANE INJURY” (NORTHWESTERN UNIVERSITY, priority 2018, published 2022).

Experiments:
myofibers [1] = test: Annexin repair cap formation after laser injury at multiple Ca2+ concentrations; assay type: cell-based, mouse; details: for Km1/2 (repair cap area as a function of Ca2+ concentration): Ca2+ 0-2 mM, modified Hill equation; for wildtype annexin A6 cap size with co-expressed mutant annexin A1 or A2: heterotypic co-expression; for repair cap diameter (DMAX) / cap size of the co-expressed wildtype annexin of the same type: wildtype+mutant vs wildtype+wildtype co-electroporation (homotypic)
Protocol: (§1) Electroporation, myofiber isolation, laser injury, cap and vesicle measurement. Flexor digitorum brevis (FDB) fibers were transfected with endo-free plasmid DNA by in vivo electroporation. Methods were described previously in (Demonbreun and McNally, 2015; Demonbreun et al., 2016b; DiFranco et al., 2009). Z-stack projections were acquired from consecutive acquisitions after the final time-lapse frame, approximately 4 minutes post damage, with a […] step size between slices. Z-stack renderings were constructed in FIJI. Measurement of the cap area and feret diameter were conducted from a single slice near the middle of the z-stack using FIJI imaging tools. Fibers expressing similar levels of tagged or GCaMP5G protein were compared. GCaMP5G Ca^2+ fluorescence was measured from the acquired timelapse images, using a standard rectangular ROI, placed inside the myofiber below the site of damage using FIJI. Fluorescence was expressed as F/F0. External vesicle number and GCaMP5G area were measured from endpoint z-stacks and max projection images using FIJI. Vesicles were considered external if they were found outside the sarcolemma assessed in brightfield and fluorescent channels. All measurements were acquired from myofibers isolated from at least n≥3 mice, n≥3 myofibers per mouse.
Calcium kinetics. FDB muscle was electroporated and isolated as described above. Myofibers were damaged in Ringers solution with Ca^2+ concentrations of 2 mM, 1 mM, 0.5 mM, 0.25 mM, 0.175 mM, 0.1 mM, 0.050 mM, and 0 mM. EDTA was added as a Ca^2+ chelating agent in only in the 0 mM Ca^2+ Ringers. Myofibers were isolated directly into 2 mM, 1 mM and 0.5 mM Ringers for those experiments respectively. For experiments using less than 0.5 mM Ca^2+ myofibers were isolated in 0.5 mM Ca^2+ Ringers and then diluted with 0 mM EDTA-free Ca^2+ Ringers. For 0 mM experiments, myofibers were isolated in 0.5 mM Ca^2+ Ringers and then replaced with 0 mM Ca^2++EDTA Ringers just prior to imaging. Co-electroporation of wildtype annexin+wildtype annexin constructs was performed in one mouse foot, while the contralateral foot was co-electroporated with wildtype annexin+mutant annexin. All measurements were acquired from myofibers isolated from at least n≥2 mice, n≥3 myofibers per mouse at each Ca^2+ concentration. Area-Ca^2+ curves were fitted with a Hill Curve at Ca^2+ concentrations ranging from 0-2 mM. Kinetic parameters were calculated using Prism Graphpad.
as §1, with “(Demonbreun A R, Quattrocelli M, Barefield D Y, Allen M V, Swanson K E,” for “(Demonbreun”, “McNally E M. An actin-dependent annexin complex mediates plasma membrane repair in muscle. The Journal of cell biology. 2016; 213(6):705-18; Demonbreun A R, and McNally E M. DNA Electroporation, Isolation and Imaging of Myofibers. Journal of visualized experiments: JoVE.” for “McNally,”, “106(106):e53551;” for “Demonbreun et al., 2016b;”, “M, Quinonez M, Capote J, and Vergara J. DNA transfection of mammalian skeletal muscles using in vivo electroporation. Journal of visualized experiments: JoVE. 2009; 32(32)).” for “et al., 2009).”, “Vesicles were considered external if they were found outside the sarcolemma assessed in brightfield and fluorescent channels. All measurements were acquired from myofibers isolated from at least n≥3 mice, n≥3 myofibers per mouse.” left out

myofibers [2] = test: Bleb formation and intracellular Ca2+ fluorescence (GCaMP5G, Fluo-4) after laser injury with annexin overexpression; assay type: cell-based, mouse; details: for internal GCaMP5G Ca2+ fluorescence at the site of injury: vs GCaMP5G alone
Protocol: as §1
as §1, with “(Demonbreun A R, Quattrocelli M, Barefield D Y, Allen M V, Swanson K E,” for “(Demonbreun”, “McNally E M. An actin-dependent annexin complex mediates plasma membrane repair in muscle. The Journal of cell biology. 2016; 213(6):705-18; Demonbreun A R, and McNally E M. DNA Electroporation, Isolation and Imaging of Myofibers. Journal of visualized experiments: JoVE.” for “McNally,”, “106(106):e53551;” for “Demonbreun et al., 2016b;”, “M, Quinonez M, Capote J, and Vergara J. DNA transfection of mammalian skeletal muscles using in vivo electroporation. Journal of visualized experiments: JoVE. 2009; 32(32)).” for “et al., 2009).”
Calcium and pH indicator dye measurements. Wildtype FDBs were isolated and plated in Ringers on Matek glass-bottom dishes as described above. Twenty minutes prior to imaging, myofibers were loaded with Fluo-4 AM at 37° C. (F10489, ThermoFisher Scientific, Waltham, Mass.) or pHrodo AM (P35373, ThermoFisher Scientific, Waltham, Mass.) as described in the instruction manual. Fibers were rinsed once with Ringers then subsequently damaged and imaged on the Nikon A1R GaSP, as described above. Fluorescence intensity was measured using FIJI (NIH). phRodo change in fluorescence intensity was calculated as F/F0. Data was acquired from n=3 mice per experiment from multiple myofibers per mouse. […]

[3] = fluorescently tagged annexin expressed in myofibers

B1: annexin A2: annexin A2 with carboxyl-terminal turboGFP or tdTomato tag, expressed from plasmid in myofibers (protein, UniProt P07356 2-339, looked up)
Annexin A2: STVHEILCKLSLEGDHSTPPSAYGSVKPYTNFDAERDALNIETAVKTKGVDEVTIVNILTNRSNVQRQDIAFAYQRRTKKELPSALKSALSGHLETVILGLLKTPAQYDASELKASMKGLGTDEDSLIEIICSRTNQELQEINRVYKEMYKTDLEKDIISDTSGDFRKLMVALAKGRRAEDGSVIDYELIDQDARELYDAGVKRKGTDVPKWISIMTERSVCHLQKVFERYKSYSPYDMLESIKKEVKGDLENAFLNLVQCIQNKPLYFADRLYDSMKGKGTRDKVLIRIMVSRSEVDMLKIRSEFKRKYGKSLYYYIQQDTKGDYQKALLYLCGGDD
modifications: C-terminal turboGFP or tdTomato tag
notes: annexin A2 with carboxyl-terminal turboGFP or tdTomato tag, expressed from plasmid in myofibers
Question: What does the source list for B1?
Answer: lowest Ca2+ concentration at which a discernable repair cap formed (myofibers [1]; [3]): 0.05 mM; Km1/2 (repair cap area as a function of Ca2+ concentration) (myofibers [1]; [3]): 0.067 mM; number of extracellular (GCaMP5G-positive) blebs at the membrane lesion (myofibers [2]; annexin overexpression vs annexin A1 overexpression or GCaMP5G alone): significantly more blebs; internal GCaMP5G Ca2+ fluorescence at the site of injury (myofibers [2]; first 20 seconds post injury): significant reduction; internal GCaMP5G Ca2+ fluorescence at the site of injury (myofibers [2]; over 240 seconds of imaging): significant reduction

B2: A2D161A: Ca2+-binding mutant of annexin A2 (D161A), plasmid expressed (protein, UniProt P07356 2-339, looked up, variant D161A)
Annexin A2: STVHEILCKLSLEGDHSTPPSAYGSVKPYTNFDAERDALNIETAVKTKGVDEVTIVNILTNRSNVQRQDIAFAYQRRTKKELPSALKSALSGHLETVILGLLKTPAQYDASELKASMKGLGTDEDSLIEIICSRTNQELQEINRVYKEMYKTDLEKDIISATSGDFRKLMVALAKGRRAEDGSVIDYELIDQDARELYDAGVKRKGTDVPKWISIMTERSVCHLQKVFERYKSYSPYDMLESIKKEVKGDLENAFLNLVQCIQNKPLYFADRLYDSMKGKGTRDKVLIRIMVSRSEVDMLKIRSEFKRKYGKSLYYYIQQDTKGDYQKALLYLCGGDD
modifications: GFP tag
Question: For B2, which “wildtype annexin A6 cap size with co-expressed mutant annexin A1 or A2” value (myofibers [1]) is on record?
Answer: The value was “minimal effect”.

Question: And the “repair cap diameter (DMAX) / cap size of the co-expressed wildtype annexin of the same type” value (shortened to “repair cap diameter (DMAX) / cap size”) (myofibers [1])?
Answer: Its value is “significantly reduced”.

B3: A6D149A: annexin A6 D149A mutant, plasmid expressed (protein, UniProt P14824 2-673, looked up, variant D149A)
Annexin A6: AKIAQGAMYRGSVHDFPEFDANQDAEALYTAMKGFGSDKESILELITSRSNKQRQEICQNYKSLYGKDLIEDLKYELTGKFERLIVNLMRPLAYCDAKEIKDAISGVGTDEKCLIEILASRTNEQMHQLVAAYKDAYERDLESDIIGATSGHFQKMLVVLLQGTRENDDVVSEDLVQQDVQDLYEAGELKWGTDEAQFIYILGNRSKQHLRLVFDEYLKTTGKPIEASIRGELSGDFEKLMLAVVKCIRSTPEYFAERLFKAMKGLGTRDNTLIRIMVSRSELDMLDIREIFRTKYEKSLYSMIKNDTSGEYKKALLKLCGGDDDAAGQFFPEAAQVAYQMWELSAVSRVELKGTVCAANDFNPDADAKALRKAMKGIGTDEATIIDIVTHRSNAQRQQIRQTFKSHFGRDLMADLKSEISGDLARLILGLMMPPAHYDAKQLKKAMEGAGTDEKTLIEILATRTNAEIRAINEAYKEDYHKSLEDALSSDTSGHFRRILISLATGNREEGGENRDQAQEDAQVAAEILEIADTPSGDKTSLETRFMTVLCTRSYPHLRRVFQEFIKKTNYDIEHVIKKEMSGDVKDAFVAIVQSVKNKPLFFADKLYKSMKGAGTDEKTLTRVMVSRSEIDLLNIRREFIEKYDKSLHQAIEGDTSGDFMKALLALCGGED
modifications: GFP tag
notes: annexin A6 D149A mutant, plasmid expressed
Question: For B3, which “repair cap diameter (DMAX) / cap size” value (myofibers [1]) is on record?
Answer: Its value is “little effect”.

B4: annexin A1: annexin A1 with carboxyl-terminal turboGFP or tdTomato tag, expressed from plasmid in myofibers (protein, UniProt P10107 2-346, looked up)
Annexin A1: AMVSEFLKQARFLENQEQEYVQAVKSYKGGPGSAVSPYPSFNVSSDVAALHKAIMVKGVDEATIIDILTKRTNAQRQQIKAAYLQENGKPLDEVLRKALTGHLEEVVLAMLKTPAQFDADELRGAMKGLGTDEDTLIEILTTRSNEQIREINRVYREELKRDLAKDITSDTSGDFRKALLALAKGDRCQDLSVNQDLADTDARALYEAGERRKGTDVNVFTTILTSRSFPHLRRVFQNYGKYSQHDMNKALDLELKGDIEKCLTTIVKCATSTPAFFAEKLYEAMKGAGTRHKALIRIMVSRSEIDMNEIKVFYQKKYGISLCQAILDETKGDYEKILVALCGGN
modifications: C-terminal turboGFP or tdTomato tag
notes: annexin A1 with carboxyl-terminal turboGFP or tdTomato tag, expressed from plasmid in myofibers
Question: How did the “Km1/2 (repair cap area as a function of Ca2+ concentration)” value (myofibers [1]; [3]) turn out when B4 was run?
Answer: Its value is 0.17 mM.

Question: And the “internal GCaMP5G Ca2+ fluorescence at the site of injury” value (myofibers [2]; over 240 seconds of imaging)?
Answer: Its value is “significant reduction”.

B5: annexin A1 D171A: Ca2+-binding mutant of annexin A1 (D171A), plasmid expressed (protein, UniProt P10107 2-346, looked up, variant D171A)
Annexin A1: AMVSEFLKQARFLENQEQEYVQAVKSYKGGPGSAVSPYPSFNVSSDVAALHKAIMVKGVDEATIIDILTKRTNAQRQQIKAAYLQENGKPLDEVLRKALTGHLEEVVLAMLKTPAQFDADELRGAMKGLGTDEDTLIEILTTRSNEQIREINRVYREELKRDLAKDITSATSGDFRKALLALAKGDRCQDLSVNQDLADTDARALYEAGERRKGTDVNVFTTILTSRSFPHLRRVFQNYGKYSQHDMNKALDLELKGDIEKCLTTIVKCATSTPAFFAEKLYEAMKGAGTRHKALIRIMVSRSEIDMNEIKVFYQKKYGISLCQAILDETKGDYEKILVALCGGN
modifications: GFP tag
Question: With B5 as the molecule, how does the “wildtype annexin A6 cap size with co-expressed mutant annexin A1 or A2” value (myofibers [1]) read?
Answer: The value was “minimal effect”.

Question: And the “repair cap diameter (DMAX) / cap size” value (myofibers [1])?
Answer: Its value is “significantly reduced”.
